In article PMC9352680, “A comprehensive thermodynamic model for RNA binding by the Saccharomyces cerevisiae Pumilio protein PUF4”:
Numbering of substitutions follows the chain as printed. In names and notes the source's numbering stands.

T1: PUF4 RNA-binding domain (Saccharomyces cerevisiae, UniProt P25339 537-888)
T1 sequence: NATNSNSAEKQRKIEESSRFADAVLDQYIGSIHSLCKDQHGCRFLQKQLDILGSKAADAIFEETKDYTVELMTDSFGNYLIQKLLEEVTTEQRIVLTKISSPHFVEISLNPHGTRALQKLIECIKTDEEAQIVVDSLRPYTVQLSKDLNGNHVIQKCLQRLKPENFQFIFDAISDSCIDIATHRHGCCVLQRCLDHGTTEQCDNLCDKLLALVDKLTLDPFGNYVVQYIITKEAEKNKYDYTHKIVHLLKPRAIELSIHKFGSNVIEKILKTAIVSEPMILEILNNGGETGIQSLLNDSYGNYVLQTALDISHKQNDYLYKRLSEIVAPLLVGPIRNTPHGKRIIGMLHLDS

B1: Ic_S4_P3E.1_K3.1_C3.1_H3.1_A3.1_[T5G]_[A6C]_F3.1_[T7C]_T3.1 (ssRNA)
RNA: UUUGACAACUGAUCGUUCUUUCUUGUAGCCAUUCUUUCUCGAUCAGUUGUCUUU
B2: Ic_S4_P3E.1_K3.1_C3.1_H3.1_A3.1_[T5C]_[A6G]_F3.1_[T7C]_[A8G]_T3.1 (ssRNA)
RNA: B1 RNA with G28C, C29G, A31G
B3: Ic_S4_P3E.1_K3.1_C3.1_H3.1_A3.1_[T5C]_[A6C]_F3.1_[T7C]_[A8T]_T3.1 (ssRNA)
RNA: B1 RNA with G28C, A31U
B4: Ic_S4_P3E.1_K3.1_C3.1_H3.1_A3.1_[T5C]_F3.1_[T7C]_[A8C]_T3.1 (ssRNA)
RNA: B1 RNA with G28C, C29A, A31C
B5: Ic_S4_P3E.1_K3.1_C3.1_H3.1_A3.1_[T5C]_F3.1_[A8T]_T3.1 (ssRNA)
RNA: B1 RNA with G28C, C29A, C30U, A31U
B6: Ic_S4_P3E.1_K3.1_C3.1_H3.1_A3.1_[T5A]_[A6C]_F3.1_[T7A]_[A8C]_T3.1 (ssRNA)
RNA: B1 RNA with G28A, C30A, A31C
B7: Ic_S4_P3E.1_K3.1_C3.1_H3.1_A3.1_[T5G]_[A6T]_F3.1_[T7G]_[A8C]_T3.1 (ssRNA)
RNA: B1 RNA with C29U, C30G, A31C
B8: Ic_S4_P3E.1_K3.1_C3.1_H3.1_A3.1_[T5C]_[A6C]_F3.1_[T7C]_T3.1 (ssRNA)
RNA: B1 RNA with G28C
B9: Ic_S4_P3E.1_K3.1_C3.1_H3.1_A3.1_[T5C]_[A6G]_F3.1_[T7C]_T3.1 (ssRNA)
RNA: B1 RNA with G28C, C29G
B10: Ic_S4_P3E.1_K3.1_C3.1_H3.1_A3.1_[T5A]_[A6C]_F3.1_[A8T]_T3.1 (ssRNA)
RNA: B1 RNA with G28A, C30U, A31U
B11: Ic_S4_P3E.1_K3.1_C3.1_H3.1_A3.1_[T5A]_[A6C]_F3.1_[T7A]_[A8T]_T3.1 (ssRNA)
RNA: B1 RNA with G28A, C30A, A31U
B12: Ic_S4_P3E.1_K3.1_C3.1_H3.1_A3.1_[T5A]_[A6T]_F3.1_[T7A]_[A8G]_T3.1 (ssRNA)
RNA: B1 RNA with G28A, C29U, C30A, A31G
B13: Ic_S4_P3E.1_K3.1_C3.1_H3.1_A3.1_[T5C]_[A6T]_F3.1_[T7A]_[A8C]_T3.1 (ssRNA)
RNA: B1 RNA with G28C, C29U, C30A, A31C
B14: Ic_S4_P3E.1_K3.1_C3.1_H3.1_A3.1_[T5A]_[A6C]_F3.1_[T7G]_[A8T]_T3.1 (ssRNA)
RNA: B1 RNA with G28A, C30G, A31U
B15: Ic_S4_P3E.1_K3.1_C3.1_H3.1_A3.1_[T5C]_[A6T]_F3.1_[T7G]_[A8G]_T3.1 (ssRNA)
RNA: B1 RNA with G28C, C29U, C30G, A31G
B16: Ic_S4_P3E.1_K3.1_C3.1_H3.1_A3.1_[T5G]_[A6T]_F3.1_[T7A]_[A8T]_T3.1 (ssRNA)
RNA: B1 RNA with C29U, C30A, A31U
B17: Ia_S1_P4E.1_K4.1_C4.1_H4.1_[G2A]_A4.1_F4.1_T4.1 (ssRNA)
RNA: UCUCUUUAUAUAUUAUCUCUU
B18: Ib_S1_P4E.1_K4.1_C4.1_H4.1_[T3C]_A4.1_F4.1_[A9T]_T4.1 (ssRNA)
RNA: UCUCUUUGCAUAUUUUCUCUU
B19: Ic_S2_P5E.1_K5.1_C5.1_H5.1_A5.1_[T6G]_[A7T]_F5.1_[T8C]_[T9A]_[A10T]_T5.1 (ssRNA)
RNA: UUUGAUUAAUAUGAUAUCGUUCUUUCUUGUAUGUCAUUUCUUUCUCGAUAUCAUAUUAAUCUUU
B20: Ic_S2_P5E.1_K5.1_C5.1_H5.1_A5.1_[T5G]_F5.1_[T8A]_[A10T]_T5.1 (ssRNA)
RNA: B19 RNA with U32G, G33U, U34A, C35A, A36U
B21: Ic_S2_P5E.1_K5.1_C5.1_H5.1_A5.1_[T5G]_[T6C]_[A7C]_F5.1_[T8C]_[T9A]_[A10T]_T5.1 (ssRNA)
RNA: B19 RNA with U32G, G33C, U34C
B22: Ic_S2_P5E.1_K5.1_C5.1_H5.1_A5.1_[T5C]_[A7C]_F5.1_[T9C]_[A10T]_T5.1 (ssRNA)
RNA: B19 RNA with U32C, G33U, U34C, C35U, A36C
B23: Ic_S2_P5E.1_K5.1_C5.1_H5.1_A5.1_[T6C]_F5.1_[T8G]_[T9C]_[A10C]_T5.1 (ssRNA)
RNA: B19 RNA with G33C, U34A, C35G, A36C, U37C
B24: Ic_S2_P5E.1_K5.1_C5.1_H5.1_A5.1_[T5G]_[A7C]_F5.1_[T9C]_[A10G]_T5.1 (ssRNA)
RNA: B19 RNA with U32G, G33U, U34C, C35U, A36C, U37G
B25: Ic_S2_P5E.1_K5.1_C5.1_H5.1_A5.1_[T6G]_[A7T]_F5.1_[T8A]_[T9A]_T5.1 (ssRNA)
RNA: B19 RNA with C35A, U37A
B26: Ic_S2_P5E.1_K5.1_C5.1_H5.1_A5.1_[T5C]_[T6G]_[A7C]_F5.1_[T8C]_[T9C]_T5.1 (ssRNA)
RNA: B19 RNA with U32C, U34C, A36C, U37A
B27: Ic_S2_P5E.1_K5.1_C5.1_H5.1_A5.1_[T5C]_F5.1_[T8A]_[T9C]_[A10C]_T5.1 (ssRNA)
RNA: B19 RNA with U32C, G33U, U34A, C35A, A36C, U37C
B28: Ic_S2_P5E.1_K5.1_C5.1_H5.1_A5.1_[T5A]_[T6A]_[A7T]_F5.1_[T9A]_T5.1 (ssRNA)
RNA: B19 RNA with U32A, G33A, C35U, U37A
B29: Ib_S1_P4E.1_K4.1_C4.1_H4.1_[G2A]_A4.1_F4.1_[A9T]_T4.1 (ssRNA)
RNA: UCUCUUUAUAUAUUUUCUCUU

Target: T1, PUF4 RNA-binding domain
Assay: Mg; RNA-MaP; 20 mM Na-HEPES pH 7.4, 30 mM KOAc, 0.75 mM MgCl2, 0.1% Tween-20, 5% glycerol, 0.1 mg/mL BSA, 2 mM DTT; 25 C; 0.0125-409.6 nM protein
Details: tags: N-His6-TEV cleaved; C-SNAP kept, Cy3B-labelled; label: tethered on chip by stalled RNA polymerase

| Binder | Kd [nM] |
| --- | --- |
| B1 | 616 |
| B2 | 908 |
| B3 | 14.2 |
| B4 | 26.4 |
| B5 | 2.28 |
| B6 | 144 |
| B7 | 506 |
| B8 | 487 |
| B9 | 444 |
| B10 | 21.6 |
| B11 | 15.1 |
| B12 | 1240 |
| B13 | 89.8 |
| B14 | 270 |
| B15 | 1840 |
| B16 | 52.9 |
| B17 | 14.1 |
| B18 | > 2300 |
| B19 | 64 |
| B20 | 342 |
| B21 | 819 |
| B22 | 13.5 |
| B23 | 389 |
| B24 | 706 |
| B25 | 53.7 |
| B26 | 558 |
| B27 | 228 |
| B28 | 2.21 |
| B29 | 413 |
